B1: TPR t1 (parent)
chain: GACCAAUCUGCCCUCAGAGCUCGAGAACAUCUUCGGAUGCAGAGGAGGCAGGCUUCGGUGGCGCGAUAGCGCCAACGUCCUCAACCUCCAAUGCAUCCCACCACAUGAUGAUGCCUGAAGAGCCUUGGUUUUUUG

Variants of: B1
Assay: polymerase ribozyme fitness, log enrichment relative to wild type (log ratio); higher = more active; in vitro selection for triplet polymerase activity
Summary of the method: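 Both subunits of a heterodimeric triplet polymerase ribozyme were given their own mutant library, built by PCR and transcribed. Each library was annealed with a biotinylated primer, the partner subunit and triplets, incubated frozen at −7 °C, and its extended constructs gel-excised, captured on streptavidin beads and amplified by RT-PCR, all in one round done in triplicate. Fitness is the logarithm of genotype enrichment relative to wild-type enrichment, with replicates averaged by inverse-variance weighting. That logarithm is base 2, and Illumina-sequenced genotypes needed ≥10 input reads and ≥1 read per output.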

Variant | polymerase ribozyme fitness (log ratio)
A6U C11G G69U U125G | -1.05
A6U C11U A46C G51C G57U A121C | -2.71
A6U C11U U14G A46C | -4.04
A6U C12A A16U G19U G42A G63U G93A U106A G120A U130A | -7.49
A6U C12A A103U | -4.89
A6U C12A U78A C80U C86A G120A | -3.45
A6U C12G G45C A74U C94U | -0.942
A6U C12U A27U | -1.6
A6U C12U G48A C56A G65U A95U C97G C101A U112G C114U | -7.26
A6U C12U G110U U130C | -0.715
A6U C13A C40U C62A A95U | -3.6
A6U C13G A26U A43U C76A C115G | -7.08
A6U C13G G52A A111C U116G A121C | -1.83
A6U C13U C62U U132A | -0.793
A6U C13U G39C | -0.104
A6U C15G A43U C115U U116G G120A G122A | -3.93
A6U C22A | -4.95
A6U C22A A43C C79G C97U | -8.2
A6U C22A C40A G61U | -5.59
A6U C22U C64U C124U | -4.12
A6U C28G G45U C56G C64A G120C | -7.29

Variant | polymerase ribozyme fitness (log ratio)
A6U C28U C123U | -0.417
A6U C34A | -1.85
A6U C34G G45C C49A C123U | -5.99
A6U C40G A50U | -1.66
A6U C40U | 0.421
A6U C40U A84G C89U G113U G122C | -5.19
A6U C49A C62U | -1.33
A6U C49G G122A | -0.638
A6U C49U C53U C62A G110A | -5.45
A6U C53G C99U | -4.03
A6U C53G C124U U129A | -0.73
A6U C53U U54G G93U U106A U129A | -2.14
A6U C56U | 0.177
A6U C56U C85A | -2.08
A6U C62A A105C | -4
A6U C62U U112G C115A U131C G135C | -1.02
A6U C64U U92G | -3.05
A6U C70U A105U U125A | -3.91
A6U C72A A84U U132C | -0.139
A6U C72A C102A C123G | 0.361
A6U C72U U96C | -0.187

Variant | polymerase ribozyme fitness (log ratio)
A6U C73A | 0.0629
A6U C73U | 0.309
A6U C79G | -1.17
A6U C80A U87A | -2.6
A6U C86U C88A A121U | 0.522
A6U C88A | -0.42
A6U C88U | -1.02
A6U C97G | -3.24
A6U C101A | -0.91
A6U C115G | -1.25
A6U C123G | 1.29
A6U C124A | 1.49
A6U G10A G71A | 0.159
A6U G10C G61A C89A U125A | -2.03
A6U G10U C15G C28A A100C C123U | -5.42
A6U G10U C53U G122C C123A U125A | -0.333
A6U G19A G44A C53A G57A A100U C124U | -4.72
A6U G19U | -2.29
A6U G42U | -1.17
A6U G42U C49U C101U G110U C123G | -6.14
A6U G42U C89G C115A U125C | -3.18

Variant | polymerase ribozyme fitness (log ratio)
A6U G44C C72G G110A C115A | -4.85
A6U G44U C53U G77U G110A | -3.2
A6U G44U G52C G69A A121C | -4.22
A6U G45U C101A | -2.89
A6U G45U G52C G69C C72U G122A | -3.45
A6U G48A | -0.413
A6U G52A A74U | -0.0324
A6U G52C C56U C80G A121G | -1.97
A6U G57A | -0.751
A6U G57A G58C A103C A105C | -6.92
A6U G60A C97G A111G U125A G135A | -6.23
A6U G60C G120U | 0.248
A6U G60U C115A G117U | -4.41
A6U G63U | -1.06
A6U G69A | -2.02
A6U G69A C115U G120C | -5.82
A6U G71C G120C C123G | -0.502
A6U G110A | -0.89
A6U G117A | -0.258
A6U G120A | 0.678
A6U U9C | 0.514

From the RNAGym collection of RNA variant scans (doi:10.1073/pnas.2313332121)
